Targets include BTK(h) (human) (UniProt Q06187); IR(h), activated (human) (UniProt P06213); MAPK2(h) (human) (UniProt P28482); MARK1(h) (human) (UniProt Q9P0L2); PAK2(h) (human) (UniProt Q13177); PDGFRβ(h) (human) (UniProt P09619); PKG1α(h) (human) (UniProt Q13976); TrkA(h) (human) (UniProt P04629).
Assay in all cases: cell-based or functional assay
For a further experiment, the target named is T1, IKKβ(h) (human) (UniProt O14920).
T1 sequence (looked up): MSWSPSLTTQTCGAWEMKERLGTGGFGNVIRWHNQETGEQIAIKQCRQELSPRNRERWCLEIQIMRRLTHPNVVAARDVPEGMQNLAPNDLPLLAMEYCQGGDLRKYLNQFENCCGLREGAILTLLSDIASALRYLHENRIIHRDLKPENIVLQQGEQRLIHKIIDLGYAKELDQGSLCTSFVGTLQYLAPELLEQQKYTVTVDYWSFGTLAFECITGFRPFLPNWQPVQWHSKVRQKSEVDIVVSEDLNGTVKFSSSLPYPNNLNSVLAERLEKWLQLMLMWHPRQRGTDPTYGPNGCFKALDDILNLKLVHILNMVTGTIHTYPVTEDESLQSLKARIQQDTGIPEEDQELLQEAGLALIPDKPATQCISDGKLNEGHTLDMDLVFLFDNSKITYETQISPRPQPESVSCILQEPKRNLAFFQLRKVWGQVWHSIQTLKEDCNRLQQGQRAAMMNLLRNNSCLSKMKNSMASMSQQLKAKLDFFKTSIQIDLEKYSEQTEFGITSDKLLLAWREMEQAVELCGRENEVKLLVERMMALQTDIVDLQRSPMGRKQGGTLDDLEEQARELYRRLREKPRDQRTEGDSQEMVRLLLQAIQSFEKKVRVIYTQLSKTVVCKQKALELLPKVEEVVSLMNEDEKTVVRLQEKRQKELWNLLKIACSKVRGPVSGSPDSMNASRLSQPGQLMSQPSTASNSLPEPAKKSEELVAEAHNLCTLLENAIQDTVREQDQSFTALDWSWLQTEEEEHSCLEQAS

The next experiment deals with T2, PDK1(h) (human) (UniProt O15530).
T2 sequence (looked up): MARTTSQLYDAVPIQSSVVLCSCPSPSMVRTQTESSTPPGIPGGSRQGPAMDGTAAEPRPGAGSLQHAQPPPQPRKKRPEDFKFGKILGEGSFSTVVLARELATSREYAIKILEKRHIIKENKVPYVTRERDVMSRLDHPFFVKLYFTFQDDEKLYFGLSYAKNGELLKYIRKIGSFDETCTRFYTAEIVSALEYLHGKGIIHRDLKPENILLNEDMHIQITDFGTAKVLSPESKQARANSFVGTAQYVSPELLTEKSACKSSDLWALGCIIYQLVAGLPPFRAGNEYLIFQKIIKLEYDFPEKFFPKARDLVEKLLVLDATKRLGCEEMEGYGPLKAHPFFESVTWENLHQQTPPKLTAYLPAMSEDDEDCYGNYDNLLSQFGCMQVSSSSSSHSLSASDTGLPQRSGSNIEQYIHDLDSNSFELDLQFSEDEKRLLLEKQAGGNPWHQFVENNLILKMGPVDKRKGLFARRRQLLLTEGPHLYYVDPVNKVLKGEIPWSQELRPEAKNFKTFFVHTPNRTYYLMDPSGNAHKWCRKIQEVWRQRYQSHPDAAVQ

A further experiment addresses T3, Ret(h) (human) (UniProt P07949).
T3 sequence (looked up): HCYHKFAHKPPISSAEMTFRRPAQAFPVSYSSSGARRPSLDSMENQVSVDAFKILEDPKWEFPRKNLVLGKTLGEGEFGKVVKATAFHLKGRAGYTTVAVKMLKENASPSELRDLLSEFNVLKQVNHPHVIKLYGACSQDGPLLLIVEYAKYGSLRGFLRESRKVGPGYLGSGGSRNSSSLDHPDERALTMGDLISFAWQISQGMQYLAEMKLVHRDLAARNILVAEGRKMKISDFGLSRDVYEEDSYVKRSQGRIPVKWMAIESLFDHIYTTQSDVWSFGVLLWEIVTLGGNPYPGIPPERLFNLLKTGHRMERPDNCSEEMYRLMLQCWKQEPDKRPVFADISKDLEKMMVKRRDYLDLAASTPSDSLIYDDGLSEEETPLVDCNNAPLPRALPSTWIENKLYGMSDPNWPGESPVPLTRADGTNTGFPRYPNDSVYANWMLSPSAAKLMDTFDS

Another experiment deals with T4, Rse(h) (human) (UniProt Q06418).
T4 sequence (looked up): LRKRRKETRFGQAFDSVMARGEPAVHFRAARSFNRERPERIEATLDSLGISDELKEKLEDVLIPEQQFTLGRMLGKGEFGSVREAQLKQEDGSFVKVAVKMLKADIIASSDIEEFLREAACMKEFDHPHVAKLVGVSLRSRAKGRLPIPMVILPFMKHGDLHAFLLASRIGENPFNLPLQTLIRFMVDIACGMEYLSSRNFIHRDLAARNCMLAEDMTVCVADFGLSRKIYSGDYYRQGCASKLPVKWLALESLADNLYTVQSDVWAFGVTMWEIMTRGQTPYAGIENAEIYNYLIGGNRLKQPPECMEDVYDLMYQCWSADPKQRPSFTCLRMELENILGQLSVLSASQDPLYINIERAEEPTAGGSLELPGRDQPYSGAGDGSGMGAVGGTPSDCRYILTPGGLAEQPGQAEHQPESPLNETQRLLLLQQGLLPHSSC

In a further experiment the target is T5, TSSK2(h) (human) (UniProt Q96PF2).
T5 sequence (looked up): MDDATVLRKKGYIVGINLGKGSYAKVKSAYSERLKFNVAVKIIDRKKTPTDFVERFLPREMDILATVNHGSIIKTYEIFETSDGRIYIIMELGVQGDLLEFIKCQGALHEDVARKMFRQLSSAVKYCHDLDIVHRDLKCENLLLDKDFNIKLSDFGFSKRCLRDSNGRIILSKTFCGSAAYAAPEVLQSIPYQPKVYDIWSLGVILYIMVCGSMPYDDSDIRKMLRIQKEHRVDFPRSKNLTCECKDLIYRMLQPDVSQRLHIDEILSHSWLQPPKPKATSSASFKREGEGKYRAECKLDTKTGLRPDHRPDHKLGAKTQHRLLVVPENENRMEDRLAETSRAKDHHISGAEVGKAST

IR(h), activated (human), sequence (P06213 1005-1310 limits assumed): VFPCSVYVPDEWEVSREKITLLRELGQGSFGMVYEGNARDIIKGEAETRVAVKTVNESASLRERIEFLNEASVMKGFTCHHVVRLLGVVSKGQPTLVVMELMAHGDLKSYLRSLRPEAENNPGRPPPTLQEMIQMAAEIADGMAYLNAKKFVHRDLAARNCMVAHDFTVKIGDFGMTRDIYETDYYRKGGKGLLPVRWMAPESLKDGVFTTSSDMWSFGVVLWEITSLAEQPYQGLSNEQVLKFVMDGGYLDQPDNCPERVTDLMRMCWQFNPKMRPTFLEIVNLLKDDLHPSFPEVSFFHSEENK
PAK2(h) (human), sequence (Q13177 whole entry): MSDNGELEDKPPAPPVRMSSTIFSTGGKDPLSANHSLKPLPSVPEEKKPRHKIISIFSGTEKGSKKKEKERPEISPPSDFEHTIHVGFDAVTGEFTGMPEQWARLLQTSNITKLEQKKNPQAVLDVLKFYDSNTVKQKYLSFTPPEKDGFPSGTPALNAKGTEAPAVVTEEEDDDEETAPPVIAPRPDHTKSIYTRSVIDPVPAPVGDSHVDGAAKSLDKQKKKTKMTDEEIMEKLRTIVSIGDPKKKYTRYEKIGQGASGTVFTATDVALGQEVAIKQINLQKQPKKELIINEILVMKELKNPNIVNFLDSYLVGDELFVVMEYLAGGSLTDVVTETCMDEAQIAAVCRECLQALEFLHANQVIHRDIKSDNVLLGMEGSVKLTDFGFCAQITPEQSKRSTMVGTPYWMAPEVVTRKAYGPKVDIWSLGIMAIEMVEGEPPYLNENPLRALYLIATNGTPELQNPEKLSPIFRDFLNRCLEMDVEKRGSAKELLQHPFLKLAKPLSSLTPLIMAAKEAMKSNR
MAPK2(h) (human), sequence (P28482 whole entry): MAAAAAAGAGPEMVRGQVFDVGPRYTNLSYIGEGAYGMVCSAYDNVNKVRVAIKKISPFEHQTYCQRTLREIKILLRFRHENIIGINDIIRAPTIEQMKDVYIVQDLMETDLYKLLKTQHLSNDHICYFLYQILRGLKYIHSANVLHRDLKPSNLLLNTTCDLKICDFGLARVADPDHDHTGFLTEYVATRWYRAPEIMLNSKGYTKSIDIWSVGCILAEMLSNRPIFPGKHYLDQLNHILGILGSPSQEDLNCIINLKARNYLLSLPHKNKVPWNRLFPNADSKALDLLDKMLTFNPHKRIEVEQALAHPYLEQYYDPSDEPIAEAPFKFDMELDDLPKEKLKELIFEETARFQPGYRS
PDGFRβ(h) (human), sequence (P09619 557-1106 limits assumed): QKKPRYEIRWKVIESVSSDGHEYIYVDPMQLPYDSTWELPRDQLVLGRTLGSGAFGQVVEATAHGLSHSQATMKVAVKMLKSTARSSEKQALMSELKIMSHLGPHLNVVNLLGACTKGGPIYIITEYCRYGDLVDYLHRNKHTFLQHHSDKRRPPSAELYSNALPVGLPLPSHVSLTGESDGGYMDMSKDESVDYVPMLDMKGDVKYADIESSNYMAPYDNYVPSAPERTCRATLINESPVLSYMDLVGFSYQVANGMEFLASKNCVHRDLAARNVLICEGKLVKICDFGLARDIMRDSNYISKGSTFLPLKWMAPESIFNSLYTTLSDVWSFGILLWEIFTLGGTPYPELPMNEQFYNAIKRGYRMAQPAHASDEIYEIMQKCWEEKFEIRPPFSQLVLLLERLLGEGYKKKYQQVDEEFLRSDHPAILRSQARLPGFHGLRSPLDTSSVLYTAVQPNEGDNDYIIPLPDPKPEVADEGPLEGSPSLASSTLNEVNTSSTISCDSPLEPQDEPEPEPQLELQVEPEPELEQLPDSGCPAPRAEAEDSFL
BTK(h) (human), sequence (Q06187 whole entry): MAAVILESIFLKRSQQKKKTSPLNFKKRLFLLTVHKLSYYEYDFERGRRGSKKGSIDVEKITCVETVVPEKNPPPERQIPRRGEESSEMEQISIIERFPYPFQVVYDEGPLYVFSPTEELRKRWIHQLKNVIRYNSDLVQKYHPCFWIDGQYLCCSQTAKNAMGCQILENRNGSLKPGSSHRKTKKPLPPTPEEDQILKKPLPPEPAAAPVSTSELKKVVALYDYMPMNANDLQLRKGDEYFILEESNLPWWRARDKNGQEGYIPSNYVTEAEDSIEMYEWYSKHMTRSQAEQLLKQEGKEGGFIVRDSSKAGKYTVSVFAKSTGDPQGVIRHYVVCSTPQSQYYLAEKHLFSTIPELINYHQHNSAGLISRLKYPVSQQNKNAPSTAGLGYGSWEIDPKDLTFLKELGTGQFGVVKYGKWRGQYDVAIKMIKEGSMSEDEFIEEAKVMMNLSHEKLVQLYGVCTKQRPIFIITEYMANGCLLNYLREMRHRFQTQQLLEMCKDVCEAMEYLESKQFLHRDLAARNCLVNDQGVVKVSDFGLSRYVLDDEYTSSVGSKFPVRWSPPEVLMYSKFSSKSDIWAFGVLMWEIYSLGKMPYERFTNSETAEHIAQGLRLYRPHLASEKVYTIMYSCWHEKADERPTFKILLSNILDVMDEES
PKG1α(h) (human), sequence (Q13976 whole entry): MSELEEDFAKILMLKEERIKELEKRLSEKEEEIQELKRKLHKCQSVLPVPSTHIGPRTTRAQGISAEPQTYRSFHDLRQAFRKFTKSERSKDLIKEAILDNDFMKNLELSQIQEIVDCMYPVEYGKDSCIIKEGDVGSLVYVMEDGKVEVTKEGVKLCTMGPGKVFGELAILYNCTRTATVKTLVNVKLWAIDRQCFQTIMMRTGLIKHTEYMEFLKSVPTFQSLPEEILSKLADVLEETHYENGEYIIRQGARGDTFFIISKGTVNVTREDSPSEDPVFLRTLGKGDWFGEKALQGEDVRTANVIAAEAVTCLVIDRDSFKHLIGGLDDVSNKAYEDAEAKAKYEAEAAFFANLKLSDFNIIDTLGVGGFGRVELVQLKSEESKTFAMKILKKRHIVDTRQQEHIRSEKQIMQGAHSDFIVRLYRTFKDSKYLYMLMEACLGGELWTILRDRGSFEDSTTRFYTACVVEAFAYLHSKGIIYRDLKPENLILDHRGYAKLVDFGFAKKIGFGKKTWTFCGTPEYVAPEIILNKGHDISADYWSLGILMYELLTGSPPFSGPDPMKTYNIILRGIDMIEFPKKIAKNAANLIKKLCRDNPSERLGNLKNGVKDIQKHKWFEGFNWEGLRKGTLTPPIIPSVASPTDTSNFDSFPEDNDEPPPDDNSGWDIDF
MARK1(h) (human), sequence (Q9P0L2 whole entry): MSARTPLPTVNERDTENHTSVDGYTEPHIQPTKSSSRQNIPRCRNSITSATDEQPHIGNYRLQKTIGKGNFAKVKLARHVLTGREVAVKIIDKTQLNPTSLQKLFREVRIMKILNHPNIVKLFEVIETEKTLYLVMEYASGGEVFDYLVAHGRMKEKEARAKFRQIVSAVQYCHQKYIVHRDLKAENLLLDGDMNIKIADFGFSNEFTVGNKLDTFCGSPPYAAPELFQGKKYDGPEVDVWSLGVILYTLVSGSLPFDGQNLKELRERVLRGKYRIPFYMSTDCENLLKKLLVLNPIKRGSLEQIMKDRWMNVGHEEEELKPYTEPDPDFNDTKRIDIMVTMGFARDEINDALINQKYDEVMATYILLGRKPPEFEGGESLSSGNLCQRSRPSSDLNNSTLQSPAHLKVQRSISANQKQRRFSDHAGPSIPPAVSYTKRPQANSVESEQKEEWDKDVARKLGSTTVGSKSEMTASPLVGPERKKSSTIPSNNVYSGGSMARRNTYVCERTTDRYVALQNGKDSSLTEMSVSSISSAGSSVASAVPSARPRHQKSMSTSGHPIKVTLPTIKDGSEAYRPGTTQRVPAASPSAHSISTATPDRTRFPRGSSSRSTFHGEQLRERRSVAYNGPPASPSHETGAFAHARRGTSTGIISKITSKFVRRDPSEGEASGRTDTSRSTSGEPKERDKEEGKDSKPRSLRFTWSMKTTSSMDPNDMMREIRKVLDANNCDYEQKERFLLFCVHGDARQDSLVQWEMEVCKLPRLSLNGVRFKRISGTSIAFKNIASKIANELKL
TrkA(h) (human), sequence (P04629 441-796 limits assumed): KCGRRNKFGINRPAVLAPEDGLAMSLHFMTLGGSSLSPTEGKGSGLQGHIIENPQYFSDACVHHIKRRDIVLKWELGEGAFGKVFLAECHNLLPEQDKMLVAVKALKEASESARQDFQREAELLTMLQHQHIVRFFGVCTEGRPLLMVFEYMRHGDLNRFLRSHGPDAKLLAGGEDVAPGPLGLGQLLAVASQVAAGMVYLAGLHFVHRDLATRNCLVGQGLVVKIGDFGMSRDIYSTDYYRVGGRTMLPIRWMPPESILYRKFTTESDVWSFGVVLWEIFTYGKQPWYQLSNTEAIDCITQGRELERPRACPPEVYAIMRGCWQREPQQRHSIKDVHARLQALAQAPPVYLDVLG

Regarding MMI-0500 (peptide), the % activity, 100 µM was determined as 18% in the experiment with BTK(h) (human); 71% in the experiment with IKKβ(h) (human); 90% in the experiment with IR(h), activated (human); 60% in the experiment with MAPK2(h) (human); 110% with MARK1(h) (human); 44% with PAK2(h) (human). Moreover, the % activity, 100 µM amounted to 40% with PDGFRβ(h) (human); 178% with PDK1(h) (human); 25% with PKG1α(h) (human); 174% in the experiment with Ret(h) (human); 63% in the experiment with Rse(h) (human); 92% with TSSK2(h) (human). Besides, the % activity, 100 µM in the experiment with TrkA(h) (human) turned out to be 24%.

Values taken from patent US20140072613A1, “Compositions and Methods for Treating Cutaneous Scarring” (priority 2012, published 2014).
